Assay results: the nanobody polyreactivity screen of Harvey et al. (2022)

assay: yeast display, Sf9 membrane polyspecificity reagent, FACS + sequencing; frameworks hold sequencing errors
Method in brief: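 Galactose-induced (36–48 hours) yeast carrying a synthetic nanobody display library were exposed to 10% biotinylated, detergent-solubilized Sf9 membrane reagent at 4 °C for 1 hour. FACS followed streptavidin microbead enrichment, using low and high (top ~1%) gates for expression (anti-HA) and reagent binding (streptavidin). Colony PCR, MiSeq 2 × 250 sequencing and CDR-length filtering followed. Labels for polyreactivity reflect the gate of origin.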

Row | Sequence | polyreactivity (PSR sort gate)
1 | QVQLVESGGGLVQAGGSLRLSCAASGIIFWQYAMGWYRQAPGKERELVAAISRSGGNTYYADSVKGRFTISRDNAKNTVYLQMNSLKPEDTAVYYCNARRYLRGYGYGYWGQGTQVTVSS | high polyreactivity
2 | QVQLVESGGGLVQAGGSLRLSCAASGIIFWYYAMGWYRQAPGKERELVAAISSGGSTTYADSVKGRFTISRDNAKNTVYLQMKSLKPEDTAVYYCAAVWLSLFKGWVDTHEYDYWGQGTQVTVSS | low polyreactivity
3 | QVQLVESGGGLVQAGGSLRLSCAASGIIFYDNAMGWYRQAPGKERALVAALTWTGSSTYYADSVKGRFTISRDNAKNTVYLQMNSLKPEDTAVSYCNARASYGHQGRLGYARLYYWGQGTQVTVSS | high polyreactivity
4 | QVQLVESGGGLVQAGGSLRLSCAASGIIFYDNAMGWYRQAPGKERELVATINYSGDSTYYADSVKGRFTISRDNAKNTVYLQMNSLKPADTAVYYCATDGAWQYYWVYSHEYWGQGTQVTVSS | low polyreactivity
5 | QVQLVESGGGLVQAGGSLRLSCAASGIIFYGNAMGWYRQAPGKERELVAAISWSGSSTYYADSVKGRFTISRDNAKNTVYLQMNSLKPEDTAVYYCAADIPYQFVRDVYYWGQGTQVTLSS | high polyreactivity
6 | QVQLVESGGGLVQAGGSLRLSCAASGIIFYGNAMGWYRQAPGKERELVARITGSDGRTYYADSVKGRFTISRDNAKNTVYLQMNSLKPEDTAVYYCNADRVRTAVYSYVYAYGIMNYWGQGTQVTVSS | low polyreactivity
7 | QVQLVESGGGLVQAGGSLRLSCAASGIIFYGYAMGWYRQAPGKERELVAAIDSGVSTNYADSVKGRFTISRDNAKNTVYLQMNSLKPEDTAVYYCAVQPWTRDNGYDYWGQGTQVTVSS | low polyreactivity
8 | QVQLVESGGGLVQAGGSLRLSCAASGIIFYGYAMGWYRQAPGKERELVAAISRSGGSTYYADSVKGRFTISRDNAKNTVYLQMNSLKPEDTAVYYCAAVAYPGKGNRGNYDYWGQGTQVTVSS | high polyreactivity
9 | QVQLVESGGGLVQAGGSLRLSCAASGIIFYHNALGWYRQAPGKERELVASITEIGGSTYYADSVKGRFTISRDNEKNTVYLQMNSLKPEDTAVYYCARDWRNKWFGYWGLGTQVTVSS | low polyreactivity
10 | QVQLVESGGGLVQAGGSLRLSCAASGIIFYHNAMGWYRQAPGKERELVASITEIGGSTYYADSVKGRFTISRDNAKNTVYILMNSLKPEDTAVYYCAAGTLTSFSRYDYWGQGTQVTVSS | low polyreactivity
11 | QVQLVESGGGLVQAGGSLRLSCAASGIIFYINAMGWYRQAPGKERELFADISSGDRTYYADSVKGRFTISRDNAKNTVYLQMNSLKPEDTAVYYCAAESYSGFVAGHTSLDDYWGQGTQVTVSS | low polyreactivity
12 | QVQLVESGGGLVQAGGSLRLSCAASGIIFYIYAMGWYRQAPGKETELVASISFSGTSTYYADSVKGRFTISRDNAKNTVYLQLHSLKPEDTAVYYCNAQTNRPWGWPIGYDYWGQGTQVTVSS | low polyreactivity
13 | QVQLVESGGGLVQAGGSLRLSCAASGIIFYKFAMGWYRQAPGKERELVASISRRGGNTYYADSVKGRCTISRDNAKNTVYLQMNSLKPEDTAVYDSAAPKRSNEPYDYWGQGTQVTVSS | high polyreactivity
14 | QVQLVESGGGLVQAGGSLRLSCAASGIIFYKNDMGWYRQAPGKERELVAAINRSGGRTYYADSVKGRFTISRDNAKNTVYLQMNSLKPEDTAVYYCATDKVSHRRYDYWGQGTLVTVSS | high polyreactivity
15 | QVQLVESGGGLVQAGGSLRLSCAASGIIFYKYAMGWYRQAPGKERELVAAITSGGGRTYYADSVKGRFTISRDNAKNTVYLQMNSLKPEDTAVYYCNADTYSAGDYWGQGTQVTVSS | high polyreactivity
16 | QVQLVESGGGLVQAGGSLRLSCAASGIIFYPYAMGWYIQAPGKERELVAGISSSGGSTYYADSVKGRFTISRDNAKNTVYLQMNSLKPEDTAVYYCAVGGERGARIGSNHRGSRYDYWGQGTQVTVSS | high polyreactivity
17 | QVQLVESGGGLVQAGGSLRLSCAASGIIFYPYAMGWYRQAPGKERELVAAISIGGGSTYYADSVKGRFTISRDYAKNTVYLQMNSLKPEDTAVYYFAAGTPYGILGFYYWGQGTQVTVSS | low polyreactivity
18 | QVQLVESGGGLVQAGGSLRLSCAASGIIFYPYAMGWYRQAPGKERELVADITSGGGTNYADSVKGRFTISRDNAKNTVYLHMNSLKREDTAVYYWAAEVRGYHWGTYYEFYYWGQGTQVTVSS | low polyreactivity
19 | QVQLVESGGGLVQAGGSLRLSCAASGIIFYRNTMGWYRQAPGKERELVAAIRRGGNTYYADSVKGRFTISRDNAKNTVYLQMNSLKPEDTAVYYCAAEDYNGRQYYHKMDYWGQGTQVTVSS | high polyreactivity
20 | QVQLVESGGGLVQAGGSLRLSCAASGIIFYRYAMGWYRQAPAKERELVAAISRSGGSTYYADSVKGRFTISRDNAKNTVYLQMNSLKPEDTAVYYCAARVRTNYYGSYYYWGQGTQVTVSS | high polyreactivity
21 | QVQLVESGGGLVQAGGSLRLSCAASGIIFYRYAMGWYRQAPGKERELVAVISRSGCSTYYADSVKGRFTISRDNAKNTVYLQMNSLKPEDTAVYYSAAGRRYDGTRHDYWGQGTQVTVSS | high polyreactivity
22 | QVQLVESGGGLVQAGGSLRLSCAASGIIFYSYAMGWYRQAPGKERELVAAISNNGGSTYADSVKGRFTISRDNAKNTVYLQMNSLKPEDTAVYYCAADPTGGVGFDGYYWGQGTQVTVSS | low polyreactivity

Row | Sequence | polyreactivity (PSR sort gate)
23 | QVQLVESGGGLVQAGGSLRLSCAASGIIFYWNAMGWYRHAPGKERELVAGITRGGSTYYADSVKGRFTISRDNAKNTVYLQMNSLKPEDTAVYYCAKRHASRRVSYSRYDYWGQGTQVTVSS | high polyreactivity
24 | QVQLVESGGGLVQAGGSLRLSCAASGIIFYWYAMGRYRQAPGKERELVATINSTGGSTNYADSVKVRFTISRDNAKNTVYLQMNSLKPEDTAVYYCAKDWNDDQHSWDTPFDYWGQGTQVTVSS | low polyreactivity
25 | QVQLVESGGGLVQAGGSLRLSCAASGIIFYYYAMGWYRHAPGKERELVAAISTSGTRTFYADSVKGRFTISRDNAKNTVYLQMNCLKPEDTAVYYCAARIYKPQRSSSLYRTSGYWGQGTQVTVSS | high polyreactivity
26 | QVQLVESGGGLVQAGGSLRLSCAASGIIFYYYAMGWYRQAPGKERELVAAISWSGGSTYYADSVKGRFTISRDNAKNTVYLQMNSLKPDDTAVYYCAAAFSPGWWSRHTYDYDYWGQGTQVTVSS | high polyreactivity
27 | QVQLVESGGGLVQAGGSLRLSCAASGIIFYYYAMGWYRQAPGKERELVAAISWSGGSTYYADSVKGRFTISRDNAKNTVYLQMNSLKPEDTAVYYCAAAFSPGWWSRHTYDYDYWGQGTQVTVSS | high polyreactivity
28 | QVQLVESGGGLVQAGGSLRLSCAASGIIFYYYVMGCYRQAPGKERELVAAISRSGGRTRYADSVKGRFTISRDNAKNTVYLQMNSLKPEDTAVYYCAAVGSVNYDADFDYWGQGTQVTVSS | high polyreactivity
29 | QVQLVESGGGLVQAGGSLRLSCAASGIIFYYYVMGWDRQAPGKERELVAAISDSGDNTYYADSVKGRFTISRDNAKKTVYLQMNSVKPEDTAVYYCNSQVDYWSNPWIYRKYDYWGQGTQVTVSS | high polyreactivity
30 | QVQLVESGGGLVQAGGSLRLSCAASGIIIITYAMGWYRQAPGKERELVAVISFSGGGTYADSVKGRFTISRDNAKNTVYLQMNSLKPEVTAVYYCAKYWLSALTLEDDYCGQGTQVTVSS | low polyreactivity
31 | QVQLVESGGGLVQAGGSLRLSCAASGIIIQRNAMGWYRQAPGKERELVAAISIGGGSTYADSVKGRFTISRDNAMNTVYLQMNSLKPEDTAVYYCAADYSGASVLMDYWGQGTQVTVSS | low polyreactivity
32 | QVQLVESGGGLVQAGGSLRLSCAASGIIIRYYAMGWYRQAPGKERELVAAISTSGGRTYYADSVKGRFTISRDNAKNPVYLQMNSLKPEDTAVYYCAARPGSWYPSVPSYNYWGQGTQVTVSW | low polyreactivity
33 | QVQLVESGGGLVQAGGSLRLSCAASGIIIRYYGMGWYRQAPGKERELVARIRWTGGSTYYADSVKGRFTISRDNAKNTVYLQMNSLKPEDTAVYYCNADPWWRFDYWGQGTQVTVSS | low polyreactivity
34 | QVQLVESGGGLVQAGGSLRLSCAASGIIITYYTMGWYRQAPGKERELVAAIRWRGGSTYYADSVKGRFTISRDNAKNTVYLQMNSLKPEDTAVYYCNARSAFRSCGRDFLFDYWGQGTQVTGSS | high polyreactivity
35 | QVQLVESGGGLVQAGGSLRLSCAASGIIIYDYAMGWYRHAPGKERELVAAISRSGGSTYYADSVKGRFTISRDNAKYTVYLQMNSLKPDDTAVYYCNADEVVWGYNYWGQGTQVTVSS | low polyreactivity
36 | QVQLVESGGGLVQAGGSLRLSCAASGIILDTYDMGWYRQAPGKERELVAVISWRGRTYYADSVKGRFTISRDNAKNTVYLQMNSLKPEDTAVYYCAAYSYRSVRWGWTSYDYWGQGTQVTVSS | high polyreactivity
37 | QVQLVESGGGLVQAGGSLRLSCAASGIILKFYAMGWYRQAPGKERELVAAISRGGRTNYADSVKGRFTISRDNANNTVYLQMNSLKPEDTAVYYCAAKSYTYYRNYDYWGQGTQVTVSA | high polyreactivity
38 | QVQLVESGGGLVQAGGSLRLSCAASGIILLFYVMGWYRQAPGKERELVASINGRSARTYYADSVKGRFTISRDNAKNTVYLQMNSLKPEDTAVYYCAAGYRYAGNGQIANTGGYYWGQGTQVTVSS | low polyreactivity
39 | QVQLVESGGGLVQAGGSLRLSCAASGIILLRYTMGWYRQAPGKERELVAAISRSAGRTYYADSVKGRFTISRDNAKNTVYLQMNSLKPEDTAVYYCAAAFVSVRKRYGYWGHGTQVTVSS | high polyreactivity
40 | QVQLVESGGGLVQAGGSLRLSCAASGIILPKYSMGWYRQAPGKERELVAAITRSGGSTYYADSVKGRFTISRDNAKNTVYLQMNSLKPEDTAVYYCAARAANPTRTARYNYWGHGTQVTVSS | high polyreactivity
41 | QVQLVESGGGLVQAGGSLRLSCAASGIILPVYAMGWYRPAPGKERELVAAIRWSSGRTYYADSVKGRFTISRDNAKNTVYLQMNSLKPEDTAVYYCAAYPSSEYDYWGQGTQVTVSS | low polyreactivity
42 | QVQLVESGGGLVQAGGSLRLSCAASGIILPVYAMGWYRQAPGKERELVAAIRWCSGRTYYADSVKGRFTISRDNAKNTVFLQMNSLKPEDTAVYYCAKDGGQRKYDYWGQGTQVTVSS | low polyreactivity
43 | QVQLVESGGGLVQAGGSLRLSCAASGIILPVYAMGWYRQAPGKERELVAAIRWSSGRTYYADSVKGRFTISRDNAKNTVYLQMNSLKPEDTAVYYCNAALYHDSEYNYWGQGTQVTVSS | high polyreactivity
